Reference: article PMC3334620

Legend:
Conditions in all cases: 200 nM
[1] = target: T1, Sut1 (Saccharomyces cerevisiae) (UniProt P53032)
T1 sequence: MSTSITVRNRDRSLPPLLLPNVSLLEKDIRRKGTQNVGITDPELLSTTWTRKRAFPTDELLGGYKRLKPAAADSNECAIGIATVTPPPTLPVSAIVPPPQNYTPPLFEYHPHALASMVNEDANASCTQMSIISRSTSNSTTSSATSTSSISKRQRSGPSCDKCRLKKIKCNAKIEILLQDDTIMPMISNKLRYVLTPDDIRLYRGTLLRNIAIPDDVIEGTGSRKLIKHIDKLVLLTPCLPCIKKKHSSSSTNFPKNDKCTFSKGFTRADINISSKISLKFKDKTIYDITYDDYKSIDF

[2] = target: T2, Upc2 (Saccharomyces cerevisiae) (UniProt Q12151)
T2 sequence: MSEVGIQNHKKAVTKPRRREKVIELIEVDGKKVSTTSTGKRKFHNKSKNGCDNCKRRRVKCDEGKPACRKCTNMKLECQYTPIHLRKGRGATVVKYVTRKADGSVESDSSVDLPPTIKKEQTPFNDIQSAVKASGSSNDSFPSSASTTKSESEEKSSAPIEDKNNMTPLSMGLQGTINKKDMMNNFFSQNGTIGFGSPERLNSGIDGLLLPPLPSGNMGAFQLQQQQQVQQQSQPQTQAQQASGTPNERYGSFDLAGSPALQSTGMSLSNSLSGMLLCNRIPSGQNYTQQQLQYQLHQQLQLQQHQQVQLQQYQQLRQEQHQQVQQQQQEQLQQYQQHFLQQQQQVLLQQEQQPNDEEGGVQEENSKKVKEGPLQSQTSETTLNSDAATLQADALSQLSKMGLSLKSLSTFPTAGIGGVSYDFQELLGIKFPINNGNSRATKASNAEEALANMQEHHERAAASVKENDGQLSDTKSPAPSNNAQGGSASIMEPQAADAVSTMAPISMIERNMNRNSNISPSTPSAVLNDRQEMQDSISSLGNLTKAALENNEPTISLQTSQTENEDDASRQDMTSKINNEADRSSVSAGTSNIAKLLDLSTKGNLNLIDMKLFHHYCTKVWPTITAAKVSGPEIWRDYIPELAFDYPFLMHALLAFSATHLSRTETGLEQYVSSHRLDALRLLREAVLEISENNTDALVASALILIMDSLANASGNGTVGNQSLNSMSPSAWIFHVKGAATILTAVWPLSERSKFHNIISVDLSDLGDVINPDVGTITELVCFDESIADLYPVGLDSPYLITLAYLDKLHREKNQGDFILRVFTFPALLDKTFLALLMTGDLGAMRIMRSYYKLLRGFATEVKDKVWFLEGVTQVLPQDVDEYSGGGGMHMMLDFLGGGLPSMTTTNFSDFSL

[3] = target: T3, Stp1 (Saccharomyces cerevisiae) (UniProt Q00947)
T3 sequence: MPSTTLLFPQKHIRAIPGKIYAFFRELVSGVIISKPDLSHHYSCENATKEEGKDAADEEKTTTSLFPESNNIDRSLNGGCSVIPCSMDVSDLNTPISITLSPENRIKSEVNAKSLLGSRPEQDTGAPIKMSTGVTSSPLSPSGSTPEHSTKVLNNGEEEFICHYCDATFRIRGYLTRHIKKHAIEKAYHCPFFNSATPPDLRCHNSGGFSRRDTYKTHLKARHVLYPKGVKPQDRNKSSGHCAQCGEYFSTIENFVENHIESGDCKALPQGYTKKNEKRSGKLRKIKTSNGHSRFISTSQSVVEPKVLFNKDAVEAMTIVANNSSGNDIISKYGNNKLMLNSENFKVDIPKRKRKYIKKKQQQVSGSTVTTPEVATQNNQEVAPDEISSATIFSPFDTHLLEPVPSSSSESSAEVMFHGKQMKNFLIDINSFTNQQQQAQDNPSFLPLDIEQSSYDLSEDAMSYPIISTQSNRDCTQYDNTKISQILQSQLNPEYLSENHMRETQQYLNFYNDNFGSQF

[4] = target: T4, Stb5 (Saccharomyces cerevisiae) (UniProt P38699)
T4 sequence: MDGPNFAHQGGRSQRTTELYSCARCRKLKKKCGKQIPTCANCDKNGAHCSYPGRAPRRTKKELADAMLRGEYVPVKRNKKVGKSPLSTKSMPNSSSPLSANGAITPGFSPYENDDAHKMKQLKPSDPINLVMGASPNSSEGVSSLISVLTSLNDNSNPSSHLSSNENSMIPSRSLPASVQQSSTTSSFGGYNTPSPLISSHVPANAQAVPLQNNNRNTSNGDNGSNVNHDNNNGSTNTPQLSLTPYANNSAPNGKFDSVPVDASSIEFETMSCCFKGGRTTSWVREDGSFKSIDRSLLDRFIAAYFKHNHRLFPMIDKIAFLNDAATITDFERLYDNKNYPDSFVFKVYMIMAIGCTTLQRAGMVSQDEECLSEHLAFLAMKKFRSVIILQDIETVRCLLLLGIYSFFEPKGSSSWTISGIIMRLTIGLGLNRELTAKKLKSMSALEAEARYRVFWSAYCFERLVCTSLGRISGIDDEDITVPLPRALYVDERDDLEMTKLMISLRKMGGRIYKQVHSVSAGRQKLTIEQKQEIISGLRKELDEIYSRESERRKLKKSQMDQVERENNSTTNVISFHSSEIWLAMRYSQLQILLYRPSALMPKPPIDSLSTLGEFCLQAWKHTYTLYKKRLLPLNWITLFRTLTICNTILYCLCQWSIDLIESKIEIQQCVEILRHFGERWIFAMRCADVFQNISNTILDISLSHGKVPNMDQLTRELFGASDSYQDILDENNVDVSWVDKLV

[5] = target: T5, Ecm22 (Saccharomyces cerevisiae) (UniProt Q05958)
T5 sequence: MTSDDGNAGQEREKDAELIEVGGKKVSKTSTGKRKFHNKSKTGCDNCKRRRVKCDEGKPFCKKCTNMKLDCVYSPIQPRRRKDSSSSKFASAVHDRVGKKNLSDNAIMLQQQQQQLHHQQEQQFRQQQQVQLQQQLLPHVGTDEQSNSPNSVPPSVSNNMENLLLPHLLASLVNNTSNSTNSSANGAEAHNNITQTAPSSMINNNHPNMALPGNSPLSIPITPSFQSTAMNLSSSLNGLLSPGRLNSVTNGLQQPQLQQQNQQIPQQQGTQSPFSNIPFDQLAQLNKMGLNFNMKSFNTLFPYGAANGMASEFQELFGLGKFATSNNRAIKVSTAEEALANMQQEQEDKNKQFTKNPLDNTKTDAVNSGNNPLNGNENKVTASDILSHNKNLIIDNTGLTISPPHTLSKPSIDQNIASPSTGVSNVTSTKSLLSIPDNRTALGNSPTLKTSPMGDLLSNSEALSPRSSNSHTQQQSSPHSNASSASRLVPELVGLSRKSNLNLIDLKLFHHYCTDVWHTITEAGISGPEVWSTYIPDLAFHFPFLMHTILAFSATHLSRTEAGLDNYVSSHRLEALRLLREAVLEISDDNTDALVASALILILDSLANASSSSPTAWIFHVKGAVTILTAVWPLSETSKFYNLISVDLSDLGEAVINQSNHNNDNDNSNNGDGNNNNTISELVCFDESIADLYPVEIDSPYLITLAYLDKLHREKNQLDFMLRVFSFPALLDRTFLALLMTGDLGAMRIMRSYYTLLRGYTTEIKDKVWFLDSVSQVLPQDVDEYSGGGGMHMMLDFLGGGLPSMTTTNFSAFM

| Sequence | binding signal (PBM E-score (-0.5 to 0.5)) [1] | binding signal (PBM E-score (-0.5 to 0.5)) [2] | further results |
| --- | --- | --- | --- |
| AAACTCCG (double strand) [8-mer AAACTCCG] | 0.498 | – | – |
| AAAGTCCG (double strand) [8-mer AAAGTCCG] | 0.496 | – | – |
| AACTCCGA (double strand) [8-mer AACTCCGA] | 0.499 | – | – |
| AACTCCGG (double strand) [8-mer AACTCCGG] | 0.499 | – | – |
| AACTCCGT (double strand) [8-mer AACTCCGT] | 0.496 | – | – |
| AAGTCCGA (double strand) [8-mer AAGTCCGA] | 0.498 | – | – |
| AAGTCCGG (double strand) [8-mer AAGTCCGG] | 0.497 | – | – |
| ACTCCGAA (double strand) [8-mer ACTCCGAA] | 0.495 | – | – |
| ACTCCGAG (double strand) [8-mer ACTCCGAG] | 0.494 | – | – |
| ATAAACGA (double strand) [8-mer ATAAACGA] | – | 0.494 | – |
| ATCGTATA (double strand) [8-mer ATCGTATA] | – | 0.493 | – |
| ATCGTTTA (double strand) [8-mer ATCGTTTA] | – | 0.495 | – |
| CAACTCCG (double strand) [8-mer CAACTCCG] | 0.497 | – | – |
| CAAGTCCG (double strand) [8-mer CAAGTCCG] | 0.492 | – | – |
| CACGGCGC (double strand) [8-mer CACGGCGC] | – | – | binding signal (PBM E-score (-0.5 to 0.5)) [3]: 0.493 |
| CGCACGGC (double strand) [8-mer CGCACGGC] | – | – | binding signal (PBM E-score (-0.5 to 0.5)) [3]: 0.488 |
| CGCCGTGC (double strand) [8-mer CGCCGTGC] | – | – | binding signal (PBM E-score (-0.5 to 0.5)) [3]: 0.493 |
| CGCGGCAC (double strand) [8-mer CGCGGCAC] | – | – | binding signal (PBM E-score (-0.5 to 0.5)) [3]: 0.49 |
| CGCGGCGC (double strand) [8-mer CGCGGCGC] | – | – | binding signal (PBM E-score (-0.5 to 0.5)) [3]: 0.492 |

| Sequence | binding signal (PBM E-score (-0.5 to 0.5)) [1] | binding signal (PBM E-score (-0.5 to 0.5)) [2] | further results |
| --- | --- | --- | --- |
| CGGACTTC (double strand) [8-mer CGGACTTC] | 0.496 | – | – |
| CGGAGTTA (double strand) [8-mer CGGAGTTA] | 0.495 | – | binding signal (PBM E-score (-0.5 to 0.5)) [4]: 0.487 |
| CGGAGTTC (double strand) [8-mer CGGAGTTC] | 0.498 | – | – |
| CGTATACG (double strand) [8-mer CGTATACG] | – | 0.494 | – |
| CTAAACGA (double strand) [8-mer CTAAACGA] | – | 0.496 | binding signal (PBM E-score (-0.5 to 0.5)) [5]: 0.493 |
| CTATACGA (double strand) [8-mer CTATACGA] | – | 0.498 | binding signal (PBM E-score (-0.5 to 0.5)) [5]: 0.496 |
| CTCGTATA (double strand) [8-mer CTCGTATA] | – | 0.499 | binding signal (PBM E-score (-0.5 to 0.5)) [5]: 0.498 |
| CTCGTTTA (double strand) [8-mer CTCGTTTA] | – | 0.495 | binding signal (PBM E-score (-0.5 to 0.5)) [5]: 0.495 |
| GCACGGCA (double strand) [8-mer GCACGGCA] | – | – | binding signal (PBM E-score (-0.5 to 0.5)) [3]: 0.49 |
| GCGCCGCA (double strand) [8-mer GCGCCGCA] | – | – | binding signal (PBM E-score (-0.5 to 0.5)) [3]: 0.491 |
| GCGCCGTA (double strand) [8-mer GCGCCGTA] | – | – | binding signal (PBM E-score (-0.5 to 0.5)) [3]: 0.495 |
| GTATACGA (double strand) [8-mer GTATACGA] | – | 0.495 | binding signal (PBM E-score (-0.5 to 0.5)) [5]: 0.492 |
| GTCGTATA (double strand) [8-mer GTCGTATA] | – | 0.496 | binding signal (PBM E-score (-0.5 to 0.5)) [5]: 0.497 |
| GTCGTTTA (double strand) [8-mer GTCGTTTA] | – | 0.494 | – |
| GTGCCGTA (double strand) [8-mer GTGCCGTA] | – | – | binding signal (PBM E-score (-0.5 to 0.5)) [3]: 0.493 |
| TAAACGAA (double strand) [8-mer TAAACGAA] | – | 0.494 | – |
| TATACGAA (double strand) [8-mer TATACGAA] | – | 0.495 | binding signal (PBM E-score (-0.5 to 0.5)) [5]: 0.494 |
| TCGTATAA (double strand) [8-mer TCGTATAA] | – | 0.497 | binding signal (PBM E-score (-0.5 to 0.5)) [5]: 0.498 |
| TCGTTTAA (double strand) [8-mer TCGTTTAA] | – | 0.497 | binding signal (PBM E-score (-0.5 to 0.5)) [5]: 0.494 |
